From patent publication EP3988566A1 (AC Immune SA, dated 2022)

Biological target: Amyloid Beta (antigen of the Amyloid Beta ELISA) (UniProt P05067 672-713, limits assumed)
Assay: Amyloid Beta ELISA, purified antibodies

Sequence of Amyloid Beta (antigen of the Amyloid Beta ELISA) (P05067 672-713 limits assumed): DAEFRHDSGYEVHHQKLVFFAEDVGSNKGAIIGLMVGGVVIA

B1: humanized antibody C2 HuVH2/HuVK3 (antibody, V domains shown)
VH: EVQLVESGGGLVQPGGSLRLSCAASGFTFSSYGMSWVRQAPGKGLEWVASINSNGGSTYYPDSVKGRFTISRDNAKNSLYLQMNSLRAEDTAVYYCASGDYWGQGTTVTVSS
VL: DIVMTQSPLSLPVTPGEPASISCRSSQSLVYSNGDTYLHWYLQKPGQSPKLLIYKVSNRFSGVPDRFSGSGSGTDFTLKISRVEAEDVGVYYCSQSTHVPWTFGQGTKVEIKR
fold reduction of binding activity against the chimeric control antibody C2 ChVHAF/ChVK: ~2 fold
